# Test results as given in US8026218 (UNIVERSITY OF ARIZONA, dated 2011).
# Square brackets hold non-standard residues; d marks the D form. Primed or numbered codes have the meaning given here. Ends that are not written are not given here. * marks the point of attachment. O‑Bzl(CF3)2 = C-terminal bis(trifluoromethyl)benzyl ester; OBzl(3,5-(CF3)2) = FC(F)(F)c1cc(CO*)cc(C(F)(F)F)c1; O‑Bzl(CF3)2″ = C-terminal Bzl(CF3)2 ester; Phe(4-Cl) = N[C@@H](Cc1ccc(Cl)cc1)C(=O)O; Phe(4-F) = N[C@@H](Cc1ccc(F)cc1)C(=O)O; Abu = CC[C@H](N)C(=O)O; Aib = CC(C)(N)C(=O)O
# B1: Tyr-DAla-Gly-Phe-γ-Abu-Trp-O-Bzl(CF3)2 (peptide)
# peptide: Y[dA]GFXW-{O‑Bzl(CF3)2}
# modifications: not fully specified (residue 5); printed as Tyr-DAla-Gly-Phe-γ-Abu-Trp-O-Bzl(CF3)2
# notes: also called NP34
# B2: DmtDAlaGlyPheNleProLeuTrpNHBn(CF3)2 (peptide)
# peptide: YAGFXPLW
# modifications: Dmt at 1 (written Y); D-Ala at 2; Nle at 5 (written X); C-terminal NH-3,5-Bzl(CF3)2 amide
# notes: also called TY050
# B3: DmtDAlaGlyPheNleProLeuTrpNHBn-3-(CF3) (peptide)
# peptide: YAGFXPLW
# modifications: Dmt at 1 (written Y); D-Ala at 2; Nle at 5 (written X); C-terminal NH-3-Bn(CF3) amide
# notes: also called TY053
# Molecular target: T1, human δ opioid receptor (human, UniProt P41143 1-372)
# T1 sequence (P41143 whole entry, stated change not applied): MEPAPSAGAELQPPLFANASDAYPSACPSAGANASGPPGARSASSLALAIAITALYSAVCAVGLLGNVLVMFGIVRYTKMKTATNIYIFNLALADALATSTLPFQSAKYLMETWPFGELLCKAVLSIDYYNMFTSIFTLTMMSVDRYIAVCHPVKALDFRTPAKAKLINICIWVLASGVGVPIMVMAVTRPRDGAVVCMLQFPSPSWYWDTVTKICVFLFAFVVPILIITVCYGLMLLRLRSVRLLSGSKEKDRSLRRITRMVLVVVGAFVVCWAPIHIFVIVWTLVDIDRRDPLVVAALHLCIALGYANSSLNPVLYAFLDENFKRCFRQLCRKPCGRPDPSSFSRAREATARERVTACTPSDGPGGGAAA
# Assay: cell-based or functional assay
row,Binder,GTP EMax
1,Y[dA]GFLW-{O‑Bzl(CF3)2} (also called NP37) [Tyr-DAla-Gly-Phe-Leu-Trp-O-Bzl(CF3)2],60
2,Y[dA]GFMW-{O‑Bzl(CF3)2} (also called NP38) [Tyr-DAla-Gly-Phe-Met-Trp-O-Bzl(CF3)2],36
3,Y[dA]GFPW-{O‑Bzl(CF3)2} (also called NP39) [Tyr-DAla-Gly-Phe-Pro-Trp-O-Bzl(CF3)2],56
4,Y[dA]GF[Abu]W-{O‑Bzl(CF3)2} (also called NP33) [Tyr-DAla-Gly-Phe-α-Abu-Trp-O-Bzl(CF3)2],43
5,B1,40
6,Y[dA]GF[Aib]W-{O‑Bzl(CF3)2″} (also called NP41) [Tyr-DAla-Gly-Phe-Aib-Trp-O-Bzl(CF3)2],65

# Molecular target: T2, rat µ opioid receptor (rat, UniProt P33535 1-398)
# T2 sequence (P33535 whole entry): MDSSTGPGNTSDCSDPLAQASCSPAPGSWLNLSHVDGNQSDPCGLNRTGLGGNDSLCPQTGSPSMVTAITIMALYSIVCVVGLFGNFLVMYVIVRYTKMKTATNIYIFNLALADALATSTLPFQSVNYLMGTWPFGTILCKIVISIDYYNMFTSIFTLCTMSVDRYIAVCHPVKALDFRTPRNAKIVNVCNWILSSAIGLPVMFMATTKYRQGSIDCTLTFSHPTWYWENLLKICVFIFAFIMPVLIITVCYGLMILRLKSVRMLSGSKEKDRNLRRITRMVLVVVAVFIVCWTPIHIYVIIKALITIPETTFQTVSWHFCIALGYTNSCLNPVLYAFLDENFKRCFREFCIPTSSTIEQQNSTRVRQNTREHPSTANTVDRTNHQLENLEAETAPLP
# Assay: cell-based or functional assay
row,Binder,GTP EMax
1,Y[dA]GFLW-{O‑Bzl(CF3)2} (also called NP37) [Tyr-DAla-Gly-Phe-Leu-Trp-O-Bzl(CF3)2],54
2,Y[dA]GFMW-{O‑Bzl(CF3)2} (also called NP38) [Tyr-DAla-Gly-Phe-Met-Trp-O-Bzl(CF3)2],51
3,Y[dA]GFPW-{O‑Bzl(CF3)2} (also called NP39) [Tyr-DAla-Gly-Phe-Pro-Trp-O-Bzl(CF3)2],47
4,Y[dA]GF[Abu]W-{O‑Bzl(CF3)2} (also called NP33) [Tyr-DAla-Gly-Phe-α-Abu-Trp-O-Bzl(CF3)2],32
5,B1,27
6,Y[dA]GF[Aib]W-{O‑Bzl(CF3)2″} (also called NP41) [Tyr-DAla-Gly-Phe-Aib-Trp-O-Bzl(CF3)2],36

# Molecular target: T2, rat µ opioid receptor
# Assay: competition vs [3H]DAMGO, rMOR cell membranes
row,Binder,Ki [nM]
1,Y[dA]GFLW-{O‑Bzl(CF3)2} (also called NP37) [Tyr-DAla-Gly-Phe-Leu-Trp-O-Bzl(CF3)2],23.3
2,Y[dA]GFMW-{O‑Bzl(CF3)2} (also called NP38) [Tyr-DAla-Gly-Phe-Met-Trp-O-Bzl(CF3)2],3.3
3,Y[dA]GFPW-{O‑Bzl(CF3)2} (also called NP39) [Tyr-DAla-Gly-Phe-Pro-Trp-O-Bzl(CF3)2],14.8
4,Y[dA]GF[Abu]W-{O‑Bzl(CF3)2} (also called NP33) [Tyr-DAla-Gly-Phe-α-Abu-Trp-O-Bzl(CF3)2],11.4
5,B1,2.2
6,Y[dA]GF[Aib]W-{O‑Bzl(CF3)2″} (also called NP41) [Tyr-DAla-Gly-Phe-Aib-Trp-O-Bzl(CF3)2],13.3

# Molecular target: T1, human δ opioid receptor
# Assay: competition vs [3H]DPDPE, hDOR cell membranes
row,Binder,Ki [nM]
1,Y[dA]GFLW-{O‑Bzl(CF3)2} (also called NP37) [Tyr-DAla-Gly-Phe-Leu-Trp-O-Bzl(CF3)2],2.9
2,Y[dA]GFMW-{O‑Bzl(CF3)2} (also called NP38) [Tyr-DAla-Gly-Phe-Met-Trp-O-Bzl(CF3)2],0.6
3,Y[dA]GF[Abu]W-{O‑Bzl(CF3)2} (also called NP33) [Tyr-DAla-Gly-Phe-α-Abu-Trp-O-Bzl(CF3)2],1.6
4,B1,25.4
5,Y[dA]GF[Aib]W-{O‑Bzl(CF3)2″} (also called NP41) [Tyr-DAla-Gly-Phe-Aib-Trp-O-Bzl(CF3)2],24.2

# Molecular target: T3, rat NK1 receptor (rat, UniProt P14600 1-407)
# T3 construct: whole, on cells; membrane preparations of the transfected cells were used; also called rNK1; rNK-1
# T3 sequence (P14600 whole entry): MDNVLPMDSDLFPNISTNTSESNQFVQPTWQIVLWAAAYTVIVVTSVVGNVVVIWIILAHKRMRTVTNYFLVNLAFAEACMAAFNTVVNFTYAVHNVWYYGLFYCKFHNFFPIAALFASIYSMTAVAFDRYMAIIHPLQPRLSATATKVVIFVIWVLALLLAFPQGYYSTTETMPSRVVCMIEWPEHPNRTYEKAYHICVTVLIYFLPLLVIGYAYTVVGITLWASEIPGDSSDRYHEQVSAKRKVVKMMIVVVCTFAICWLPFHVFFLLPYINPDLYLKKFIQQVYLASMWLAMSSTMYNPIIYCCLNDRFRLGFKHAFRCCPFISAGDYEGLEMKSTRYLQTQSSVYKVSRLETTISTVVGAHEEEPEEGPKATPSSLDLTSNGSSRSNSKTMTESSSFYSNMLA
# Assay: competition vs [3H]Substance P, rNK1 CHO cell membranes
row,Binder,IC50 [nM]
1,"Y[dA]GFPLW-{OBzl(3,5-(CF3)2)} (also called TY001) [TyrDAlaGlyPheProLeuTrpOBn(CF3)2]",21.7

# Molecular target: T4, human NK1 receptor (human, UniProt P25103 1-407)
# T4 construct: whole, on cells; membrane preparations of the transfected cells were used; also called hNK1; human neurokinin-1 receptor
# T4 sequence (P25103 whole entry): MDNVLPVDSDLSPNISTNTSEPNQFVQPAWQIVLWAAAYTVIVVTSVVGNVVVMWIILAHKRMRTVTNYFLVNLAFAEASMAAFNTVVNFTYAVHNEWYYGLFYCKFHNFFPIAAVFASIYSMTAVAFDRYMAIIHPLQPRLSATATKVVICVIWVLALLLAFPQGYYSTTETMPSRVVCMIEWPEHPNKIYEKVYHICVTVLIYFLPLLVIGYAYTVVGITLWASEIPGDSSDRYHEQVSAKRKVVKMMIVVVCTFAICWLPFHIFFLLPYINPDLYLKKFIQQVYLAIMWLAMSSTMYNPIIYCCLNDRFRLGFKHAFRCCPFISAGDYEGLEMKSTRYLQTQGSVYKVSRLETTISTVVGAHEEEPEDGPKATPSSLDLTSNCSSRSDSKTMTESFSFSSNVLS
# Assay: competition vs [3H]Substance P, hNK1 CHO cell membranes
row,Binder,Ki [nM]
1,B2,0.075
2,B3,1.04

# Molecular target: T4, human NK1 receptor
# Assay: as above
# Remark: another data set of the same source
row,Binder,Ki [nM]
1,Y[dA]GFLW-{O‑Bzl(CF3)2} (also called NP37) [Tyr-DAla-Gly-Phe-Leu-Trp-O-Bzl(CF3)2],0.09
2,Y[dA]GFMW-{O‑Bzl(CF3)2} (also called NP38) [Tyr-DAla-Gly-Phe-Met-Trp-O-Bzl(CF3)2],0.009
3,Y[dA]GFPW-{O‑Bzl(CF3)2} (also called NP39) [Tyr-DAla-Gly-Phe-Pro-Trp-O-Bzl(CF3)2],0.1
4,Y[dA]GF[Abu]W-{O‑Bzl(CF3)2} (also called NP33) [Tyr-DAla-Gly-Phe-α-Abu-Trp-O-Bzl(CF3)2],0.12
5,B1,0.001
6,Y[dA]GF[Aib]W-{O‑Bzl(CF3)2″} (also called NP41) [Tyr-DAla-Gly-Phe-Aib-Trp-O-Bzl(CF3)2],0.008

# Molecular target: T3, rat NK1 receptor
# Assay: competition vs [3H]Substance P, rNK1 CHO cell membranes
# Remark: another data set of the same source
row,Binder,Ki [nM]
1,Y[dA]GFLW-{O‑Bzl(CF3)2} (also called NP37) [Tyr-DAla-Gly-Phe-Leu-Trp-O-Bzl(CF3)2],0.29
2,Y[dA]GFMW-{O‑Bzl(CF3)2} (also called NP38) [Tyr-DAla-Gly-Phe-Met-Trp-O-Bzl(CF3)2],0.089
3,Y[dA]GFPW-{O‑Bzl(CF3)2} (also called NP39) [Tyr-DAla-Gly-Phe-Pro-Trp-O-Bzl(CF3)2],1.6
4,Y[dA]GF[Abu]W-{O‑Bzl(CF3)2} (also called NP33) [Tyr-DAla-Gly-Phe-α-Abu-Trp-O-Bzl(CF3)2],1.2
5,B1,7.4
6,Y[dA]GF[Aib]W-{O‑Bzl(CF3)2″} (also called NP41) [Tyr-DAla-Gly-Phe-Aib-Trp-O-Bzl(CF3)2],3.4

# Molecular target: T4, human NK1 receptor
# Assay: competition vs [3H]Substance P, hNK1 CHO cell membranes
# Remark: another data set of the same source
row,Binder,Ki [nM]
1,"Y[dA]G[Phe(4-Cl)]-{OBzl(3,5-(CF3)2)} (also called NP52) [Tyr-D-Ala-Gly-pClPhe-O-3′,5′(CF3)2-Bzl]",8.04
2,"Y[dA]GFW-{OBzl(3,5-(CF3)2)} (also called NP36) [Tyr-D-Ala-Gly-Phe-Trp-O-3′,5′(CF3)2-Bzl]",0.0005
3,"Y[dA]G[Phe(4-F)]-{O‑3,5‑Bzl(CF3)2} (also called NP62) [Tyr-D-Ala-Gly-pFPhe-O-3′,5′(CF3)2-Bzl]",0.2
